# T1: NT-4 (neurotrophin-4) (Homo sapiens, UniProt P34130 P34130:81-210)
# T1 sequence: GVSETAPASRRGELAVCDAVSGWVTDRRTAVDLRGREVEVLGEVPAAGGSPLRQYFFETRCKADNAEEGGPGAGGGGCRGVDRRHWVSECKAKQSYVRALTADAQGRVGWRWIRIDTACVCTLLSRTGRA
# Target: T1, NT-4 (neurotrophin-4)
# Experiment: cell_activity; TF-1
# Details: tags: R&D Systems; chain copies: 2
# Excerpt: Using TF-1 cells, whether NGF aptamer inhibits BDNF, NT-3, NT-4 was examined. Human receptor genes (TrkB, TrkC, p75) for respective neurotrophic factors were introduced into TF-1 cells (ATCC Number: CRL-2003), which is a human erythroleukemic cell line, by using a retrovirus vector to give cells that highly express these receptors stably. TF-1 cells introduced with TrkB and p75 were used for the evaluation of inhibitory activity against BDNF, TF-1 cells introduced with TrkC and p75 were used for the evaluation against NT-3, and TF-1 cells introduced with TrkB alone were used for the evaluation against NT-4. These cells were suspended in an RPMI-1640 medium containing 20% fetal bovine serum, and seeded in a white 96 well flat-bottom plate at 1000 cells (50 μL) per well. Thereto was added a mixed solution 50 μL of human BDNF (final concentration 0.074 nM) or NT-3 (final concentration 0.074 nM) or NT-4 (final concentration 0.071 nM) and the aptamer (final concentration 1 μM-0.01 nM), which had been pre-reacted at room temperature for 30 min in a serum-free RPMI-1640 medium, 3 days later, 100 μL of CellTiter-Glo reagent for CellTiter-Glo Luminescent Cell Viability Assay (manufactured by Promega) was added to each well, chemiluminescence was measured by a microplate reader. With the amount of luminescence per well obtained by the addition of BDNF or NT-3 or NT-4 alone and culture of the cells for 3 days as inhibitory activity 0%, and that of the well obtained by culture for 3 days without addition of BDNF or NT-3 or NT-4 as inhibitory activity 100%, the inhibitory activity of the aptamer was calculated from the amount of luminescence per well obtained by culturing with the addition of BDNF or NT-3 or NT-4 and the aptamer in mixture. When the inhibitory activity was 0 or below, ‘0%’ is indicated. The 50% inhibitory concentration (IC₅₀) was determined from the concentrations at two, above and below points sandwiching the 50% inhibitory activity. An IC₅₀ value indicated as “>X” means that the inhibitory activity was not more than 50% when the indicated concentration X was the maximum measured concentration. N.D. means not measured.
row,Binder,IC50 [nM]
1,"GGGUCCUGUGGAAGAGUUUCCGUCUCGUCCACUGUUACCC (ssRNA, as 89(2) plus 2'-OMe U9,G10,G11,C29,C30) [SEQ ID NO: 89(4)]",271

# Target: T2, NGF (nerve growth factor) (Homo sapiens, UniProt P01138 P01138:122-241)
# T2 sequence (P01138 122-241, one chain of several): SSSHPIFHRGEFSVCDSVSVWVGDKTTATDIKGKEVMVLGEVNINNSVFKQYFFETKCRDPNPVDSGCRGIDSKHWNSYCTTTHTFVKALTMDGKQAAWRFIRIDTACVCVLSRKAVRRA
# Experiment: cell_activity; neurite
# Details: tags: R&D Systems; chain copies: 2
# Method: (§1) The cells (2500 cells per well) were cultured for one day in an RPMI-1640 medium containing 2.5% horse serum and 1.25% fetal bovine serum in a 96 well flat-bottom plate coated with collagen type IV. […] Two days later, the cytoplasm and nuclei were stained using Cellomics Neurite Outgrowth Kit (manufactured by Thermo Scientific), and neurite length per cell was measured by Cellomics ArrayScan VTI (manufactured by Thermo Scientific). With the neurite length per cell obtained by the addition of NGF alone as inhibitory activity 0%, and that of the cell obtained by NGF free culture for 2 days as inhibitory activity 100%, the inhibitory activity of the aptamer was calculated from the neurite length per cell obtained by culturing with the addition of NGF and the aptamer in mixture.
row,Binder,IC50 [nM]
1,"GGGUCCUGCUGCAUAGUUUCCGUCUGUGUGGCUGUUACCC (ssRNA, 2'-OMe G (G8,G34 2'-OH), dA, 2'-F C/U; 5',3' idT) [SEQ ID NO: 71(1)]",≤ 1
2,"GGGUCCUGCUGCGUAGUUUCCGUCUGCGUGGCUGUUACCC (ssRNA, 2'-OMe G (G8,G34 2'-OH), dA, 2'-F C/U; 5',3' idT) [SEQ ID NO: 152]",≤ 1
3,"GGGUCCUGCUGCGUAGUUUCCGUCUGCGUGGCUGUUACCC (ssRNA, 2'-OMe G (G8,G34 2'-OH), dA, 2'-F C/U; 5' idT, 3' PEG40GS2) [SEQ ID NO: 154]",≤ 1
4,"GGGUCCUGAUGCGUAGUUUCCGUCUGCGUGUCUGUUACCC (ssRNA, 2'-OMe G (G8,G34 2'-OH), dA, 2'-F C/U; 5',3' idT) [SEQ ID NO: 68(1)]",≤ 1
5,"GGGUCCUGCUGCAGAGUUUCCGUCUCGGUGGCUGUUACCC (ssRNA, 2'-OMe G (G8,G34 2'-OH), dA, 2'-F C/U; 5',3' idT) [SEQ ID NO: 74(1)]",≤ 1
6,"GGGUCCUGCUGCGCAGUUUCCGUCUACGUGGCUGUUACCC (ssRNA, 2'-OMe G (G8,G34 2'-OH), dA, 2'-F C/U; 5',3' idT) [SEQ ID NO: 155]",≤ 1
7,"GGGUCCUGCUGCGUAGUUUCCGUCUGCGUGGCUGUUACCC (ssRNA, 2'-OMe G (G8,G34 2'-OH), dA, 2'-F C/U; 5' PEG40GS2, 3' idT) [SEQ ID NO: 153]",≤ 1
8,"GGGUCCUGCUGCGUAGUUUCCGUCUGCGUGGCUGUUACCC (ssRNA, 2'-OMe G (G8,G26,G34 2'-OH), dA, 2'-F C/U; 5',3' idT) [SEQ ID NO: 151]",≤ 1
9,"GGGUCCUGCUGCGUAGUUUCCGUCUUCGCGGCUGUUACCC (ssRNA, 2'-OMe G (G8,G34 2'-OH), dA, 2'-F C/U; 5',3' idT) [SEQ ID NO: 38(1)]",≤ 1
10,"GGGUCCUGCUGCAUAGUUUCCGUCUUUGUGGCUGUUACCC (ssRNA, 2'-OMe G (G8,G34 2'-OH), dA, 2'-F C/U; 5',3' idT) [SEQ ID NO: 66(1)]",≤ 1

# Target: T2, NGF (nerve growth factor)
# Experiment: cell_activity; neurite outgrowth inhibition
# Details: tags: R&D Systems; chain copies: 2
# Method: as §1
row,Binder,IC50 [nM]
1,"GGGUCCUGGAUAAGAGUUUCCGUCUCGUAUCCUGUUACCC (ssRNA, 2'-F C5,U7,U17,U18,U19,C20,C24,U25,U33,U36; 2'-OH G8,G34; 2'-H A; 2'-OMe all other; 5' PEG40TS2; 3' idT) [SEQ ID NO: 82(64)]",0.107
2,"GGGUCCUGGAUAAGAGUUUCCGUCUCGUAUCCTGUUACCC (ssRNA, 2'-F C5,U7,U17,U18,U19,C20,C24,U25,U36; dT33; 2'-OH G8,G34; 2'-H A; 2'-OMe all other; idT 5' and 3') [SEQ ID NO: 161]",0.036
3,"GGGUCCUGGAUAAGAGUUUCCGUCUCGUAUCCUGUUACCC (ssRNA, 2'-F all C and U; 2'-OMe G1-3,G9,G14,G16,G22,G27; 2'-OH G8,G34; 2'-H A; idT 5' and 3') [SEQ ID NO: 82(1)]",0.7
4,"GGGUCCUGGAUAAGAGUUUCCGUCUCGUAUCCUGUUACCC (ssRNA, 2'-F all C and U; 2'-OMe G1-3,G9,G14,G16,G22,G27; 2'-OH G8,G34; 2'-H A; 5' PEG40GS2; 3' idT) [SEQ ID NO: 82(56)]",0.067
5,"GGGUCCUGGAUAAGAGTUUCCGUCUCGUAUCCUGUUACCC (ssRNA, 2'-F C5,U7,U18,U19,C20,C24,U25,U33,U36; dT17; 2'-OH G8,G34; 2'-H A; 2'-OMe all other; idT 5' and 3') [SEQ ID NO: 160]",0.038
6,"GGGUCCUGUCGCUAAGUUUCCGUCUUUGCGGCUGUUACCC (ssRNA, 2'-F C and U; 2'-OH G; 2'-H (deoxy) A) [SEQ ID NO: 84]",0.793

# Target: T2, NGF (nerve growth factor)
# Experiment: cell_activity; neurite; TF-1 <0.1
# Details: tags: R&D Systems; chain copies: 2
row,Binder,IC50 [nM]
1,"GGGUCCUGUGGAAGAGUUUCCGUCUCGUCCACUGUUACCC (ssRNA, as 89(2) plus 2'-OMe U9,G10,G11,C29,C30) [SEQ ID NO: 89(4)]",< 0.1

# Target: T2, NGF (nerve growth factor)
# Experiment: cell_activity; neurite; TF-1 >0.1
# Details: tags: R&D Systems; chain copies: 2
row,Binder,IC50 [nM]
1,"GGGUCCUGGAUAAGAGUUUCCGUCUCGUAUCCUGUUACCC (ssRNA, as 82(25) except dU18) [SEQ ID NO: 82(38)]",0.295
2,"GGGUCCUGGAUAAGAGUTUCCGUCUCGUAUCCUGUUACCC (ssRNA, as 82(1) except dT18) [SEQ ID NO: 157]",0.299
3,"GGGUCCUGGAUAAGAGUUUCCGUCUCGUAUCCUGUUACCC (ssRNA, as 82(25) except dU19) [SEQ ID NO: 82(39)]",0.256
4,"GGGUCCUGGAUAAGAGUUUCCGUCUCGUAUCCUGUUACCC (ssRNA, as 82(1) except 2'-OMe U33) [SEQ ID NO: 82(14)]",0.294
5,"GGGUCCUGGAUAAGAGUUUCCGUCUCGUAUCCUGUUACCC (ssRNA, as 82(1) except 2'-OMe U4,C6,U11,C20,C21,C26,U28,U30,C31,C32,U35,C38-40) [SEQ ID NO: 82(19)]",0.291
6,"GGGUCCUGGAUAAGAGTUUCCGUCUCGUAUCCTGUUACCC (ssRNA, as 82(48) except dU7,dT17,dT33,dU36) [SEQ ID NO: 168]",0.261
7,"GGGUCCUGGAUAAGAGUUUCCGUCUCGUAUCCUGUUACCC (ssRNA, as 82(25) except 2'-OMe A13) [SEQ ID NO: 82(43)]",0.088
8,"GGGUCCUGGAUAAGAGUUUCCGUCUCGUAUCCUGUTACCC (ssRNA, as 82(1) except dT36) [SEQ ID NO: 159]",0.264
9,"GGGUCCUGGAUAAGAGUUUCCGUCUCGUAUCCUGUUACCC (ssRNA, as 82(1) except dC24) [SEQ ID NO: 82(31)]",0.276
10,"GGGUCCUGGAUAAGAGUUUCCGUCUCGUAUCCUGUUACCC (ssRNA, as 82(25) except 2'-OMe A12) [SEQ ID NO: 82(44)]",0.097
11,"GGGUCCUGGAUAAGAGUUUCCGUCUCGUAUCCUGUUACCC (ssRNA, as 82(1) except dC20) [SEQ ID NO: 82(30)]",0.244

# Target: T2, NGF (nerve growth factor)
# Experiment: cell_activity; neurite; TF-1 >0.3
# Details: tags: R&D Systems; chain copies: 2
row,Binder,IC50 [nM]
1,"GGGUCCUGGAUAAGAGUUUCCGUCUCGUAUCCUGUUACCC (ssRNA, as 82(48) without 5' idT; PS between U7 and G8) [SEQ ID NO: 82(57)]",0.045
2,"GGGUCCUGGAUAAGAGUUUCCGUCUCGUAUCCUGUUACCC (ssRNA, as 82(48) without 5' idT; PS between U11 and A12) [SEQ ID NO: 82(59)]",0.034
3,"GGGUCCUGGAUAAGAGUUUCCGUCUCGUAUCCUGUUACCC (ssRNA, as 82(48) without 5' idT; PS between G8 and G9) [SEQ ID NO: 82(58)]",0.072
4,"GGGUCCUGUGGAAGAGUUUCCGUCUCGUCCACUGUUACCC (ssRNA, as 89(4) plus 2'-OMe U4,A15,A31,A37; no 5' idT) [SEQ ID NO: 89(5)]",0.079

# Target: T2, NGF (nerve growth factor)
# Experiment: SPR; more than 40N; high inhibition of receptor binding
# Details: tags: R&D Systems; chain copies: 2
row,Binder,binding result
1,"GGGCACAUCCUGCUGCGUAGUUUCCGUCUCCGUGGCUGUUAUGUGC (ssRNA, 2'-F C and U; 2'-OH G; 2'-H (deoxy) A) [SEQ ID NO: 11]",binds
2,"SEQ ID NO: 14 (ssRNA, 2'-F C and U; 2'-OH G; 2'-H (deoxy) A) RNA: GGGAGAACUUCGACCAGAAGUGCAAUACUUUCGCGGCAUAUGUGCAAACCUUGCCACGACUAUGUGCGCAUACAUGGA",binds
3,"GGGGUCCUGCUGCGUAGUUUCCGUCUCCGUGGCUGUUACCCC (ssRNA, 2'-F C and U; 2'-OH G; 2'-H (deoxy) A) [SEQ ID NO: 13]",binds
4,"SEQ ID NO: 15 (ssRNA, 2'-F C and U; 2'-OH G; 2'-H (deoxy) A) RNA: GGGAGAACUUCGACCAGAAGUGCAAUACUUUCGCGGCAUAUGUGCAAACCUUGCCACGACUAUGUGCGCAUAC",binds
5,"SEQ ID NO: 10 (ssRNA, 2'-F C and U; 2'-OH G; 2'-H (deoxy) A) RNA: GGGAGAACUUCGACCAGAAGUUGGCACAUCCUGCUGCGUAGUUUCCGUCUCCGUGGCUGUUAUGUGCG",binds
6,"SEQ ID NO: 16 (ssRNA, 2'-F C and U; 2'-OH G; 2'-H (deoxy) A) RNA: CGACCAGAAGUGCAAUACUUUCGCGGCAUAUGUGCAAACCUUGCCACGACUAUGUGCGCAUAC",binds
7,"SEQ ID NO: 9 (ssRNA, 2'-F C and U; 2'-OH G; 2'-H (deoxy) A) RNA: GGGAGAACUUCGACCAGAAGUUGGCACAUCCUGCUGCGUAGUUUCCGUCUCCGUGGCUGUUAUGUGCGCAUAC",binds

# Same assay, conditions: tags: R&D Systems; chain copies: 2; stem 1 - internal loop 1 - stem 2 - loop 2 (consensus secondary structure 1)
row,Binder,binding result
1,"GGGUCCUGCUGCGUAGUUUCCGUCUCCGUGGCUGUUACCC (ssRNA, 2'-F C and U; 2'-OH G; 2'-H (deoxy) A) [SEQ ID NO: 12]",binds
